Measured values taken from PMC9114808.

Biological target: 14-3-3 protein gamma (UniProt P61982)
Experiment: peptide bead pull-down, label-free MS
Conditions: reference: unphosphorylated peptide; sites T426

In the case of “Septin 7 (Sept7) C-terminal tail peptide C-terminal tail, 416-438 (from UniProt Q16181) pT426 peptide”, the “binding against the reference” value is reported as “stronger”.
